The text below walks through data of PMC4613707.

In general, stoichiometry N refers to the number of molecules, sites or subunits per partner or assembly.

For assay [1], the target named is FLAG–TSP5 (human) (UniProt P49747). In words: SDS/PAGE under non-reducing and reducing conditions with immunoblot; FLAG-tagged proteins immunoprecipitated with anti-FLAG M2 on rProtein G agarose from conditioned media of transfected COS7 cells, washed in Tris-buffered saline with 2 mM CaCl2, eluted by boiling in SDS sample buffer with or without 100 mM DTT; oligomers formed in the cells. Background: Immunoblotting shows a protein as a band on a membrane.

Assay [2] addresses FLAG–TSP-5-1C (human). The assay is described as above.
Assay [3] addresses FLAG–mRFP–TSP-5-1C (human). The experiment in a line: SDS/PAGE under non-reducing and reducing conditions with immunoblot; mRFP-tagged proteins collected with RFP-Trap_A beads from conditioned media of transfected COS7 cells, eluted by boiling in SDS sample buffer with or without 100 mM DTT; immunoblot for RFP (and FLAG, result not shown); oligomers formed in the cells.

Sequence of FLAG–TSP5, P49747 21-757 (natural protein; other documents disagree on this pair) (P49747 21-757): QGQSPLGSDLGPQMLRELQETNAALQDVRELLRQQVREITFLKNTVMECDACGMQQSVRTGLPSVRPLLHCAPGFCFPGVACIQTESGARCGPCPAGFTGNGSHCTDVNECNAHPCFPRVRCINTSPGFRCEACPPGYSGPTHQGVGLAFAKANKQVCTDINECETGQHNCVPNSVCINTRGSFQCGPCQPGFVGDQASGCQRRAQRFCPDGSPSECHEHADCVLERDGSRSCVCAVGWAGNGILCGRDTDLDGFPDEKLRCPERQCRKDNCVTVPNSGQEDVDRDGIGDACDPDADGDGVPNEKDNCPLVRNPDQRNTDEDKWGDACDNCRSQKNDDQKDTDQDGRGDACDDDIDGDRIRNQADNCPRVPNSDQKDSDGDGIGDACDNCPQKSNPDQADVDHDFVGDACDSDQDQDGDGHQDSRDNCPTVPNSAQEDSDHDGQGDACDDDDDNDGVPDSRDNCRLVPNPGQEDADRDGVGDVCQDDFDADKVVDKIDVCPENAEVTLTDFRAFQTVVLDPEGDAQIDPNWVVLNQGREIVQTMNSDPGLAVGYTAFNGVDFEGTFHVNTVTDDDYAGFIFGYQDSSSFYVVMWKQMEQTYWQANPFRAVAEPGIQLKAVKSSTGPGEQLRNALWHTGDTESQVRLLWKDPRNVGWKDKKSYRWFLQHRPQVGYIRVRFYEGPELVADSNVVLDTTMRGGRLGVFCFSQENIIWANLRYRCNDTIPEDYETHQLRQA

As to “FLAG–TSP5, P49747 21-757 (natural protein; other documents disagree on this pair)”, in assay [1], the stoichiometry N amounted to 5.

As for FLAG–TSP-5-1C, the stoichiometry N in assay [2] was found to be 5.

In turn, FLAG–mRFP–TSP-5-1C returned a stoichiometry N in assay [3] of 5.
